2 molecules from US20240383982A1 (Genmab, published 2024) can be followed below.

By EC50 (read off the curve) is commonly meant the concentration needed to bring the measured effect to its halfway point. Usually Kd stands for the free concentration of one partner at which half of the binding sites on the other are occupied at equilibrium, for simple one-to-one binding. One may read the koff as the first-order rate constant of dissociation. A word on the kon: it is the rate constant with which the complex forms.

Assay [1] concerns the target T1, human B7H4, full length, on cells (human, UniProt Q7Z7D3 25-282).
T1 construct: Uniprot Q7Z7D3; Used for transfected HEK cells and for the B7H4-expressing human tumor cell lines (endogenous B7H4); also called VTCN1
T1 sequence: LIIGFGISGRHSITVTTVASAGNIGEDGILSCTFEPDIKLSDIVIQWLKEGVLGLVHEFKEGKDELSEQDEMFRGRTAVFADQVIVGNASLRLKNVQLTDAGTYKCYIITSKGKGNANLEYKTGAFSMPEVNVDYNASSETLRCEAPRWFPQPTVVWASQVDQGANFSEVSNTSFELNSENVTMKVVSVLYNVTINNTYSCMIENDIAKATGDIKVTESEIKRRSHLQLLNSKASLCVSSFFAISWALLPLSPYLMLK
Put plainly: flow cytometry on SK-BR3 tumor cells [panel SK-BR3 cells]. As to the method:
(§1) Cells (3×10⁴ cells/well) were incubated in polystyrene 96-well round-bottom plates (Greiner bio-one, cat. no. 650180) with serial dilutions of antibodies (ranging from 0.000458 to 30 μg/mL in 4-fold dilution steps) in 100 μL PBS/0.1% BSA/0.02% azide (staining buffer) at 4° C. for 30 min. Experiments were performed in technical duplicate. After washing twice in staining buffer, cells were incubated in 50 μL secondary antibody at 4° C. for 30 min. As a secondary antibody, R-Phycoerythrin (PE)-conjugated goat-anti-human IgG F(ab′)₂ (1:500 in FACS buffer; Jackson ImmunoResearch Laboratories, Inc., West Grove, PA, cat. no. 109-116-098), was used. Cells were washed twice in staining buffer, re-suspended in 30 μL FACS buffer containing Topro-3 (1:10,000 dilution) and analyzed on an iQue Screener (Intellicyt Corporation, USA). Binding curves were analyzed using non-linear regression (sigmoidal dose-response with variable slope) using GraphPad Prism V7.02 software (GraphPad Software, San Diego, CA, USA).
Binding was analyzed by flow cytometry as described above.
Background: In flow cytometry, cells or beads pass a laser one at a time.

For another assay, the target named is T2, B7H3-IgV/B7H4-IgC.
T2 construct: also called chimeric molecule with the IgV domain of B7H3 and the IgC domain of B7H4
T2 full-length chimeric protein on cells: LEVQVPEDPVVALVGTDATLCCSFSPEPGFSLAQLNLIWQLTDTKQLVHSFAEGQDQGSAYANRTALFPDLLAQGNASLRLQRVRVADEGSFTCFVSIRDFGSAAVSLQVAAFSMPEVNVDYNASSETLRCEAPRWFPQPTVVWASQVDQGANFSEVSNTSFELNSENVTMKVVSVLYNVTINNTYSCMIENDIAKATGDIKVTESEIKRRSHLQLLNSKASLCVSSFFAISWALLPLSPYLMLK
Description: flow cytometry, HEK cells transiently transfected with B7H3-IgV/B7H4-IgC, PE anti-human IgG F(ab')2 [panel B7H3-IgV/B7H4-IgC].

Assay [2] concerns the target T3, mouse (Mus musculus) B7H4, full length, on HEK-293F cells (mouse, UniProt Q7TSP5 25-257).
T3 construct: Uniprot Q7TSP5; also called mouse B7H4
T3 sequence: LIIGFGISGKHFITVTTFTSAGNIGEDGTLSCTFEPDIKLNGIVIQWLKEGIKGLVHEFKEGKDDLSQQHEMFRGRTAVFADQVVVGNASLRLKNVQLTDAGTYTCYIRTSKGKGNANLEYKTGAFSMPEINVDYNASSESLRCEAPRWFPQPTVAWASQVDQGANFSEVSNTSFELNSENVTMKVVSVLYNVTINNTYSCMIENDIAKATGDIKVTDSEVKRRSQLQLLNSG
Description: flow cytometry, HEK-293F cells transfected with mouse B7H4 [panel Mouse B7H4]. As to the method: as §1

The target in assay [3] is T4, human recombinant His tagged B7H4 protein (Sino Biological cat. no. 10738-H08H) (human, UniProt Q7Z7D3 29-258).
T4 construct: Bought protein; theoretical mass 26.8 kDa; also called human B7H4; human B7H4 extracellular domain
T4 sequence: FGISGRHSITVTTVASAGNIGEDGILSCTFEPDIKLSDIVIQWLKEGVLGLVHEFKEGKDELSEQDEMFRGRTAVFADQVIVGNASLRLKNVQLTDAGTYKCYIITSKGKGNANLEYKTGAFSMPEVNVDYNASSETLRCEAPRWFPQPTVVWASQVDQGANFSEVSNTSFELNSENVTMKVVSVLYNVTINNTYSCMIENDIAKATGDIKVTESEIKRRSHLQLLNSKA
Put plainly: BLI (Octet HTX); antibody on anti-human IgG Fc capture sensor, human B7H4 ECD-His in solution; 1st experiment. As to the method: Target binding affinity of B7H4 antibodies was determined by label-free biolayer interferometry (BLI) on an Octet HTX instrument (FortéBio). Experiments were carried out while shaking at 1,000 RPM at 30° C. […] Anti-Human IgG Fc Capture (AHC) biosensors (FortéBio, cat. no. 18-5060) were pre-conditioned by exposure to 10 mM glycine (Sigma-Aldrich, cat. no. 15527) buffer pH 1.7 for 5 s, followed by neutralization in Sample Diluent (FortéBio, cat. no. 18-1048) for 5 s; both steps were repeated 2 times. Next, AHC sensors were loaded with antibody (1 μg/mL in Sample diluent) for 600 s. […] The theoretical molecular mass of human B7H4 and mouse B7H4 (as ECD-His tagged molecules) based on their amino acid sequences (26.8 kDa and 26.6 kDa respectively) were used for calculations. For each antibody a reference sensor was used, which was incubated with Sample Diluent instead of antigen. AHC sensors were regenerated by exposure to 10 mM glycine buffer pH 1.7 for 5 s, followed by neutralization in Sample Diluent for 5 s; both steps were repeated twice. Subsequently sensors were loaded again with antibody for the next cycle of kinetics measurements.
Data were acquired using Data Acquisition Software v9.0.0.49d (FortéBio) and analyzed with Data Analysis Software v9.0.0.12 (FortéBio). Data traces were corrected per antibody by subtraction of the reference sensor. The Y-axis was aligned to the last 10 s of the baseline, Interstep Correction alignment to dissociation and Savitzky-Golay filtering were applied. Data traces with a response<0.05 nm were excluded from analysis. The data was fitted with the 1:1 Global Full fit model using a window of interest for the association and dissociation times set at 300 s and 200 s respectively.
For orientation: BLI is a label-free optical method that tracks binding on a fibre tip over time.

Description for B7H3-IgV/B7H4-IgC: After washing twice in FACS buffer, cells were incubated with secondary antibody at 4° C. for 30 min. […] Next, cells were washed twice in FACS buffer, re-suspended in 20 μL FACS buffer and analyzed on an iQue Screener (Intellicyt Corporation, USA).
Further experiments were conducted to study the B7H4 domain specificity of the B7H4 antibodies in more detail, by analysis of full dose-response curves.

B1: bsIgG1-huCD3-H101G-FEALxB7H4-C1-N52S-FEAR (bispecific antibody)
heavy 1: not shown
light 1: not shown
heavy 2: QVQLQQWGAGLLKPSETLSLTCAVYGGSFSGYYWSWIRQPPGKGLEWIGEISHSGSTNYNPSLKSRVTISIDTSKNQFSLKLTSVTAADTAVFYCARGLFNWNFDSWGQGTLVTVSSASTKGPSVFPLAPSSKSTSGGTAALGCLVKDYFPEPVTVSWNSGALTSGVHTFPAVLQSSGLYSLSSVVTVPSSSLGTQTYICNVNHKPSNTKVDKRVEPKSCDKTHTCPPCPAPEFEGGPSVFLFPPKPKDTLMISRTPEVTCVVVAVSHEDPEVKFNWYVDGVEVHNAKTKPREEQYNSTYRVVSVLTVLHQDWLNGKEYKCKVSNKALPAPIEKTISKAKGQPREPQVYTLPPSREEMTKNQVSLTCLVKGFYPSDIAVEWESNGQPENNYKTTPPVLDSDGSFFLYSRLTVDKSRWQQGNVFSCSVMHEALHNHYTQKSLSLSPGK
light 2: DIQMTQSPSSLSASVGDRVTITCRASQGIRNDLGWYQQKPGKAPKRLIYGASSLQSGVPSRFSGSGSGTEFTLTISSLQPEDFATYYCLQHNSYPRTFGQGTTVEIKRTVAAPSVFIFPPSDEQLKSGTASVVCLLNNFYPREAKVQWKVDNALQSGNSQESVTEQDSKDSTYSLSSTLTLSKADYEKHKVYACEVTHQGLSSPVTKSFNRGEC
notes: also called bslgG1-huCD3-H101G-FEALxB7H4-C1-N52S-FEAR; BslgG1-huCD3-H101G-FEALxB7H4-C1-N52S-FEAR
Consider B1, for which the “EC50 (read off the curve)” value in assay [1] was approximately 1 µg/mL. In the assay with B7H3-IgV/B7H4-IgC, the binding result was “binds”.

B2: IgG1-B7H4-C1-N52S-FEAR (antibody, V domains shown)
VH: QVQLQQWGAGLLKPSETLSLTCAVYGGSFSGYYWSWIRQPPGKGLEWIGEISHSGSTNYNPSLKSRVTISIDTSKNQFSLKLTSVTAADTAVFYCARGLFNWNFDSWGQGTLVTVSS
VL: DIQMTQSPSSLSASVGDRVTITCRASQGIRNDLGWYQQKPGKAPKRLIYGASSLQSGVPSRFSGSGSGTEFTLTISSLQPEDFATYYCLQHNSYPRTFGQGTTVEIKR
notes: Full length human IgG1 with L234F, L235E, D265A, K409R (FEAR) heavy chain constant region and kappa light chain; bivalent, monospecific; also called IgG1-B7H4-C1-052S-FEAR
For the molecule B2, the 50% effective concentration (EC50 (read off the curve)) in assay [2] was approximately 0.3 µg/mL. Besides, in assay [3], the equilibrium dissociation constant (Kd) worked out at 57 nM, the koff was 0.0054 s⁻¹ and the on-rate constant (kon) amounted to 94000 M⁻¹ s⁻¹.
